{"source": "paper PMC10204415", "about": "(2023)", "binders": {"B1": {"name": "GST-ZO1-ZU5 (mouse ZO-1 ZU5 domain, residues 1624–1745) (domain or fragment)", "chain": "EDGHTVVATARGIFNSNGGVLSSIETGVSIIIPQGAIPEGIEQEIYFKVCRDNSILPPLDKEKGETLLSPLVMCGPHGLKFLKPVELRLPHCDPKTWQNKCLPGDPNYLVGANCVSVLIDHF"}}, "key": {"[1]": {"biological_target": "T1, MBP-ARHGEF11 (mouse ARHGEF11 residues 1334–1406, except for deleted residues 1352–1394 by alternative … (mouse, UniProt Q68FM7 1334-1406, deleted residues 1352–1394 by alternative splicing))", "T1 sequence (Q68FM7 entry or part of it deleted residues 1352–1394 by alternative splicing)": "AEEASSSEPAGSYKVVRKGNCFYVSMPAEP", "assay": "replicate 3; GSA-immobilized MBP-ARHGEF11, CDNB assay"}, "[2]": {"biological_target": "T1, MBP-ARHGEF11 (mouse ARHGEF11 residues …)", "assay": "replicate 2; GSA-immobilized MBP-ARHGEF11, CDNB assay"}, "[3]": {"biological_target": "T1, MBP-ARHGEF11 (mouse ARHGEF11 residues …)", "assay": "replicate 1; GSA-immobilized MBP-ARHGEF11, CDNB assay"}, "[4]": {"biological_target": "T1, MBP-ARHGEF11 (mouse ARHGEF11 residues …)", "assay": "replicate 1; without BSA blocking"}, "[5]": {"biological_target": "T1, MBP-ARHGEF11 (mouse ARHGEF11 residues …)", "assay": "replicate 3; without BSA blocking"}, "[6]": {"biological_target": "T1, MBP-ARHGEF11 (mouse ARHGEF11 residues …)", "assay": "replicate 2; without BSA blocking"}}, "data": [{"binder": "B1", "values": [{"measurement": "Kd", "setting": "[1]", "value": 56, "unit": "µM"}, {"measurement": "Kd", "setting": "[2]", "value": 28, "unit": "µM"}, {"measurement": "Kd", "setting": "[3]", "value": 37.3, "unit": "µM"}, {"measurement": "Kd", "setting": "[4]", "value": 8.7, "unit": "µM"}, {"measurement": "Kd", "setting": "[5]", "value": 14.7, "unit": "µM"}, {"measurement": "Kd", "setting": "[6]", "value": 10.9, "unit": "µM"}]}]}
